Changes are numbered by the printed parent chain. No end group written: not given here.
B1: hFN10/B (designed binder)
chain: SDVPRDLEVVAATPTSLLISWDAPAVTVRYYRITYGETGGNSPVQEFTVPGSKSTATISGLKPGVDYTITVYAVIARGDWNDGSKPISINY
notes: hFN10 with the three residues flanking RGDWN changed to match barbourin; His tag as for hFN10
B2: wild-type integrin αVβ3 on cells (K562-αVβ3, M21, HEK293T) (receptor)
chain 1: FNLDVDSPAEYSGPEGSYFGFAVDFFVPSASSRMFLLVGAPKANTTQPGIVEGGQVLKCDWSSTRRCQPIEFDATGNRDYAKDDPLEFKSHQWFGASVRSKQDKILACAPLYHWRTEMKQEREPVGTCFLQDGTKTVEYAPCRSQDIDADGQGFCQGGFSIDFTKADRVLLGGPGSFYWQGQLISDQVAEIVSKYDPNVYSIKYNNQLATRTAQAIFDDSYLGYSVAVGDFNGDGIDDFVSGVPRAARTLGMVYIYDGKNMSSLYNFTGEQMAAYFGFSVAATDINGDDYADVFIGAPLFMDRGSDGKLQEVGQVSVSLQRASGDFQTTKLNGFEVFARFGSAIAPLGDLDQDGFNDIAIAAPYGGEDKKGIVYIFNGRSTGLNAVPSQILEGQWAARSMPPSFGYSMKGATDIDKNGYPDLIVGAFGVDRAILYRARPVITVNAGLEVYPSILNQDNKTCSLPGTALKVSCFNVRFCLKADGKGVLPRKLNFQVELLLDKLKQKGAIRRALFLYSRSPSHSKNMTISRGGLMQCEELIAYLRDESEFRDKLTPITIFMEYRLDYRTAADTTGLQPILNQFTPANISRQAHILLDCGEDNVCKPKLEVSVDSDQKKIYIGDDNPLTLIVKAQNQGEGAYEAELIVSIPLQADFIGVVRNNEALARLSCAFKTENQTRQVVCDLGNPMKAGTQLLAGLRFSVHQQSEMDTSVKFDLQIQSSNLFDKVSPVVSHKVDLAVLAAVEIRGVSSPDHIFLPIPNWEHKENPETEEDVGPVVQHIYELRNNGPSSFSKAMLHLQWPYKYNNNTLLYILHYDIDGPMNCTSDMEINPLRIKISSLQTTEKNDTVAGQGERDHLITKRDLALSEGDIHTLGCGVAQCLKIVCQVGRLDRGKSAILYVKSLLWTETFMNKENQNHSYSLKSSASFNVIEFPYKNLPIEDITNSTLVTTNVTWGIQPAPMPVPVWVIILAVLAGLLLLAVLVFVMYRMGFFKRVRPPQEEQEREQLQPHENGEGNSET
chain 2: GPNICTTRGVSSCQQCLAVSPMCAWCSDEALPLGSPRCDLKENLLKDNCAPESIEFPVSEARVLEDRPLSDKGSGDSSQVTQVSPQRIALRLRPDDSKNFSIQVRQVEDYPVDIYYLMDLSYSMKDDLWSIQNLGTKLATQMRKLTSNLRIGFGAFVDKPVSPYMYISPPEALENPCYDMKTTCLPMFGYKHVLTLTDQVTRFNEEVKKQSVSRNRDAPEGGFDAIMQATVCDEKIGWRNDASHLLVFTTDAKTHIALDGRLAGIVQPNDGQCHVGSDNHYSASTTMDYPSLGLMTEKLSQKNINLIFAVTENVVNLYQNYSELIPGTTVGVLSMDSSNVLQLIVDAYGKIRSKVELEVRDLPEELSLSFNATCLNNEVIPGLKSCMGLKIGDTVSFSIEAKVRGCPQEKEKSFTIKPVGFKDSLIVQVTFDCDCACQAQAEPNSHRCNNGNGTFECGVCRCGPGWLGSQCECSEEDYRPSQQDECSPREGQPVCSQRGECLCGQCVCHSSDFGKITGKYCECDDFSCVRYKGEMCSGHGQCSCGDCLCDSDWTGYYCNCTTRTDTCMSSNGLLCSGRGKCECGSCVCIQPGSYGDTCEKCPTCPDACTFKKECVECKKFDREPYMTENTCNRYCRDEIESVKELKDTGKDAVNCTYKNEDDCVVRFQYYEDSSGKSILYVVEEPECPKGPDILVVLLSVMGAILLIGLAALLIWKLLITIHDRKEFAKFEEERARAKWDTANNPLYKEATSTFTNITYRGT
notes: also called WT αVβ3; cellular αVβ3
B3: WT knottin 2.5F-Fc fusion protein (rEETI 2.5F) (Fc fusion)
chain: GCPRPRGDNPPLTCSQDSDCLAGCVCGPNGFCG
modifications: ends and bridges not checked; also: C-terminal His tag on knottin, fused at C-terminus to human IgG Fc, Fc fusion dimer
notes: The order of His tag and Fc is read from 'c-terminal his-tagged ... fused at the c-terminus to the Fc fragment'; also called WT 2.5F; WT rEETI 2.5F; not shown: C-terminal His tag of the knottin; Fc fragment of human IgG
B4: modified knottin 2.5F M1, Fc fusion (Fc fusion)
chain: B3 chain with N9W, P10N
modifications: ends and bridges not checked; also: C-terminal His tag, number of His and linker not given here, fused at C-terminus to Fc fragment of human IgG
notes: Made by site-directed mutagenesis of the WT rEETI 2.5F construct; tested as culture supernatant; not shown: C-terminal His tag of the knottin; Fc fragment of human IgG
B5: modified knottin 2.5F M, Fc fusion (Fc fusion)
chain: B3 chain with N9W, P10N, P11E, L12G
modifications: ends and bridges not checked; also: C-terminal His tag, number of His and linker not given here, fused at C-terminus to Fc fragment of human IgG
notes: as for B4

Key:
[1] = biological target: B2; assay: M21 cells, unlabeled FN10, AP5 read-out by flow cytometry
Method: (§1) K562-αVβ3 cells, transiently transfected HEK293T or αVβ3⁺ M21 cells (0.5×10⁶ in 100 μl WB) were incubated in the absence or presence of unlabeled soluble FN10 (5 μg) in Ca²⁺/Mg²⁺ or in Mn²⁺ (30 min; at 25° C.). Alexa647-labeled AP5 Fab (plus Alexa488-labeled AP3, when HEK293T cells were used), unlabeled anti-LIBS-1 (all to 10 μg/ml) or LIBS-6 ascites (to 1:50 dilution) were added, and the cells incubated for an additional 30 min before washing. APC-labeled goat anti-mouse Fc-specific antibody was added to anti-LIBS-1- or anti-LIBS-6-bound M21 cells, cells were incubated for an additional 30 min at 4° C. then washed, resuspended, fixed in 4% paraformaldehyde and analyzed by flow cytometry. LIBS epitope expression was measured and expressed as MFI (in case of K562-αVβ3 or M21 cells) and normalized (in case of HEK293T cells) by dividing its MFI by the MFI for Alexa488-labeled AP3, and multiplied by 100.

[2] = biological target: T1, wild-type 10th type-III RGD-domain of human fibronectin (wtFN10) (human, UniProt P02751 1539-1631); assay: as above
T1 construct: Expressed in bacteria with an N-terminal His tag (S1417-T1509) and a thrombin cleavage site; also called wild-type FN10
Method: as §1

[3] = biological target: B2; assay: flow cytometry on K562-αVβ3, culture supernatant, fluoresceinated anti-human Fc mAb, Ca2+/Mg2+
Method: (§2) Binding of soluble knottin dimers to αVβ3-K562 cells was expressed as mean fluorescence intensity (MFI), as determined using FlowJo software. […] Alexa647-labeled mAb AP5 Fab (10 μg/ml) was added, and cells incubated for an additional 30 min before washing. APC-labeled goat anti-mouse Fc-specific antibody was added to anti-LIBS-1- or anti-LIBS-6-bound M21 cells for an additional 30 min at 4° C. Cells were then washed, resuspended, fixed in 4% paraformaldehyde and analyzed by flow cytometry. AP5 epitope expression was measured and expressed as MFI.
as §2, with “Cells were washed, resuspended, fixed in 4% paraformaldehyde, and analyzed using FACSCalibur or BD-LSRII flow cytometers (BD Biosciences). Binding” for “Binding”, “Fe-specific” for “Fc-specific”

| Binder | binding result [3] | further results |
| --- | --- | --- |
| B1 | – | binding result [1]: binds |
| B2 | – | binding result [2]: binds |
| B3 | binds | – |
| B4 | binds | – |
| B5 | binds | – |

Source: patent US20170044236A1 (GENERAL HOSPITAL, published 2017)
